The conditions of this series: Homo sapiens; pH 2.7; Thermal; DSC; Gly-HCl 0.05 M; reversible: yes; whole UniProt chain shown.

B1: Lysozyme C wild type, P61626 (protein)
chain: MKALIVLGLVLLSVTVQGKVFERCELARTLKRLGMDGYRGISLANWMCLAKWESGYNTRATNYNAGDRSTDYGIFQINSRYWCNDGKTPGAVNACHLSCSALLQDNIADAVACAKRVVRDPQGIRAWVAWRNRCQNRDVRQYVQGCGV
For orientation: Tm means the temperature at the midpoint of the melting transition. As to B1, the Tm is 64.9 °C, the “heat capacity change of unfolding” value stood at 1.58 kcal/mol/K and the “unfolding enthalpy (van 't Hoff)” value is 114 kcal/mol.

For the origin of these results see FireProtDB (doi:10.1002/prot.1147).
